{"source": "paper PMC10803816", "about": "“EGFR core fucosylation, induced by hepatitis C virus, promotes TRIM40-mediated-RIG-I ubiquitination and suppresses interferon-I antiviral defenses”", "key": {"immunoblot of total EGFR": {"assay": "immunoblot of total EGFR", "conditions": "glycan lost; control: wild-type Flag-EGFR"}, "[1]": {"assay": "RT-qPCR of HCV RNA, 48 h infection", "conditions": "glycan lost; control: EGFR KO Huh7 complemented with wild-type EGFR"}, "[2]": {"assay": "confocal EGFR/Lamp1 colocalisation after EGF, Huh7", "conditions": "glycan lost; control: wild-type EGFR"}, "His6-SNAIL [3]": {"target": "T1, His6-SNAIL (UniProt O95863 1-264)", "T1 sequence (O95863 whole entry)": "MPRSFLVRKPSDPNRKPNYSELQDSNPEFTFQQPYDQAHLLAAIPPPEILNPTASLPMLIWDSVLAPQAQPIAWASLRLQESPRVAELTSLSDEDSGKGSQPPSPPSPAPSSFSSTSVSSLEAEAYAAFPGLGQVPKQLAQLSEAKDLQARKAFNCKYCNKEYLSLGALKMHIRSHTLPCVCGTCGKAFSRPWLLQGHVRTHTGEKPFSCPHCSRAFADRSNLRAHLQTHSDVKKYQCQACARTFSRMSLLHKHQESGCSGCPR", "assay": "EMSA; increasing SNAIL; Beyotime EMSA kit GS005 per manufacturer; 8% native PAGE; buffer, salt, pH and temperature not stated", "conditions": "protein: recombinant; tags: His6 (pET28a); label: 5' FAM; blunt"}, "His6-SNAIL [4]": {"target": "T1, His6-SNAIL", "assay": "competition; 10-fold excess (300 nM) unlabeled probe abolished binding to WT-FAM probe; Beyotime EMSA kit GS005 per manufacturer; 8% native PAGE; buffer, salt, pH and temperature not stated", "conditions": "protein: recombinant; tags: His6 (pET28a); blunt"}, "His6-SNAIL [5]": {"target": "T1, His6-SNAIL", "assay": "EMSA; text: SNAIL lost ability to bind mutant probe; legend and Methods leave open whether labeled or competitor; Beyotime EMSA kit GS005 per manufacturer; 8% native PAGE; buffer, salt, pH and temperature not stated", "conditions": "protein: recombinant; tags: His6 (pET28a); label: 5' FAM per Methods (legend also mentions mutant probe added at 300 nM); blunt"}}}
{"molecule": "Epidermal growth factor receptor (EGFR, ErbB1, HER1): N352Q", "values": [{"measurement": "expression_or_secretion", "setting": "immunoblot of total EGFR", "result": "no change"}, {"measurement": "other: viral replication", "setting": "[1]", "result": "decreases"}, {"measurement": "localisation_or_trafficking", "setting": "[2]", "result": "decreases"}]}
{"molecule": "FUT8 promoter WT probe (-295 to -260) (dsDNA) DNA 1: TACACTTCCTGACGTGGCAGGTGAGAGAGTGTGGGT DNA 2: ACCCACACTCTCTCACCTGCCACGTCAGGAAGTGTA", "values": [{"measurement": "binding result", "setting": "His6-SNAIL [3]", "result": "binds"}]}
{"molecule": "FUT8 promoter WT unlabeled competitor (dsDNA) DNA 1: TACACTTCCTGACGTGGCAGGTGAGAGAGTGTGGGT DNA 2: ACCCACACTCTCTCACCTGCCACGTCAGGAAGTGTA", "values": [{"measurement": "binding result", "setting": "His6-SNAIL [4]", "result": "binds"}]}
{"molecule": "FUT8 promoter Mut probe (dsDNA) DNA 1: TACACTTCCTGACGTGAGAGGGGTCAGAGTGTGGGT DNA 2: ACCCACACTCTGACCCCTCTCACGTCAGGAAGTGTA", "values": [{"measurement": "binding result", "setting": "His6-SNAIL [5]", "result": "no binding"}]}
